Target: T1, MTBP (Mdm2 Binding Protein), Xenopus (Xenopus laevis (endogenous in egg …, UniProt Q6NRW0 1-860))
T1 construct: MTBP of Xenopus laevis, endogenous in egg extract; 96 kDa as printed; Printed N-terminal 125 residues (antigen MTBP-2): [residues removed]
T1 sequence (looked up): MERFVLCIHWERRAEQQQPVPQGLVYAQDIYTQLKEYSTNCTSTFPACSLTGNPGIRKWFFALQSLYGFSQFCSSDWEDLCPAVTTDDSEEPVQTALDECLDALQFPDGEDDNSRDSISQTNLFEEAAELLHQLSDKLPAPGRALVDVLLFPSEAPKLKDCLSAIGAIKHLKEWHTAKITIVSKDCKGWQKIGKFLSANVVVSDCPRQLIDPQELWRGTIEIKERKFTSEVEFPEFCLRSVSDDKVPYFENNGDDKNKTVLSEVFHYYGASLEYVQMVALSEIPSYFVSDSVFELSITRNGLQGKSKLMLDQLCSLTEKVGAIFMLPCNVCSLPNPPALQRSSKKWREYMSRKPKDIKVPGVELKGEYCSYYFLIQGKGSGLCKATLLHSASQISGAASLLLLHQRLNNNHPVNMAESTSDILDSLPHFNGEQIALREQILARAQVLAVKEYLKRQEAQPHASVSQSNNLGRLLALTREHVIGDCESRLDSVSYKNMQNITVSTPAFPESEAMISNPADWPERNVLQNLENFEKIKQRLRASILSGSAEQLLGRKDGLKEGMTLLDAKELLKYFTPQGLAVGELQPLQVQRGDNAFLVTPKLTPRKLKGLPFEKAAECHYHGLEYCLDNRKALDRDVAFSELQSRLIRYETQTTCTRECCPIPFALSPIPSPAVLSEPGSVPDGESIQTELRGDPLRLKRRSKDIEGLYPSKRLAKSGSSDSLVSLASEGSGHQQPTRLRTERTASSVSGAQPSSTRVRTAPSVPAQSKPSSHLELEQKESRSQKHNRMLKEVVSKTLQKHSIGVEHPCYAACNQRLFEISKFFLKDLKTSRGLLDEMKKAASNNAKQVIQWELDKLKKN
Experiment: SEC + other: sucrose gradient centrifugation; 3% PEG-precipitated proteins of Xenopus egg extract in LFB1/50; Agilent BIO SEC-5 column at 4°C and 5-40% sucrose gradient; fractions immunoblotted for MTBP and Treslin; native mass by the Siegel and Monty equation
Settings: partners not purified

B1: Treslin/Ticrr, Xenopus (natural protein, UniProt D3IUT5 1-1985, looked up)
chain: MAPSHNVVLLVDTAESSDKSRLRRVSLRLLNFLACRAGLGQVRWSYRFLNSSGGRCRPPRRSDLRELGPRGWEEFEDELEACWERARNCRPSSTQSSRAQLLQTALMETLADFQWDRPDITSPTKPTLLRSRRGRIVAADEPLKDDSPDNFINPHSRNSIFLLSSCPHSGTELGQFAATSGDFSTQKVMDKLLPKSLQKIVSSKRVRVYWLDTSDWTQFGSSSDHSGYWTMVELMHQVEGRILPSESILGSSCQKAKTLPSFSVPPINIPFESVLNYLIFSEPDYQLWFPRRDGILFLTGKDGTKQLDCAVSLEPVSMIQKLSTSLMTIELKGTMQNCNLPLAGLRVETWLLHNSDCVQLQKLTKELMLKELHMIATVTLEDDVLPRTGILSPLSETAAVLNVICSERTLGLDNLHVQGSVHETDKETFSDLPDIVMSVLNHVYSSEDNTLAPDFPVPEWIKQELSQSSRWTSSVTARWYPLSGVSGASCNLMESFRLINAASSNCDEHLKFDQELTNYLSEFYQKKSVDDAGLGVHRENQKKSGLPRTPVRQKMKTLPRALQMLNAARLNVKAQKADSTLPVPNEKNSQMKRRSSGKQDNKPKQLKPTEFQSEDGLISYIKENYEEAVSLVDHSTMTWARDTLTTIKSYLKSIGSEQIETEAIDKVKLLFKTSKVIRQNYRNNQDKEVKLKECQLQVFLRLEMFVQCPVIQMDSDELELIIEEITDILRIVSLTEDPLFLTKFLEVDVLTQYIASVPKILADIYFSLGTQIPEVLVLVLPSDGDDSIMHEEKSVKSQPSTSRVPSVAPIGAETDQLEDLRTRSAKKRRSTALARHRSVAESSQSFRQIEVPKRQPNKENVQSNAVVVLEKLKLPLPAQPQKDAEAKVRRNLFIQETRSPSKRCSKMPRSQSVSAVESLKRKRSKSHDGSKDHHKLLTKKVSETPVHKQTANRLLLRQIKGRPSESNSNISIVEESPEKEIRDIDLRRSPRIKQLSLTRRNSSSFYASQPKSRNLERVNSATQLQQSRERPGSCLISEVKTPKRLLFGEVLGMISPPTTKRSRRILDMVNPVYKTPGKTPRKTPSKNIPNFEDQSGNMLVKSPCTPYTPRTPSRTPKRLKTPSKGSTERKKAAKNLGKLFSPSKPEEKSPLKLWGRRSERLAQMTPGKDGSPYKQSVCQTLMEVKTPQKLQRLESKDFRTPSRTPTRSNNTTPAKQSMQISNTPRKSDLKHPQEHESRGPSGYILWTPQKRILASVPHTPILQTPQKPISASVPRTPVCRTPQKAILSSVPSTPVCQTPNKAILTSVSRTPVYQTPQKAILASVMSTPVYQTPQKPVLASVPTTPILKTPQRSALASVSHTPSPKKYIMKELTVAITRMRECTPEKVLGSNLSSSATPSSALKSFCSEKTTSVCQTPKKSSIALLKPCDSLEFSGAPERLMDSLCSNKDSTKAETACTVPSQISTQMQNVINAGECTDSLSQTSVSSPSIPFTDKSLSPDLKDALSDVTSSKAEGVTIVSEKLDSSSMDSQEATDSFINSSQTEESIDISEARVVSTEASELKMKVLITRKPSGSGVSYLPTTPKCLGNVCSTSTYGLRCTPDRRQREAAARLGTPEIPAKFSTPKSHCKMIPQSIYEVELEMQESGLPKLRFKRTDSNSTIDMDVNKTPKISRKRKGDESPFNEKWCSKHAVRTEPACVSPSCVRTSHYTPGKSGIQTFICQSYTPNRCLSAAASPSQSDAGVPWTPSPKEKLSTDVINSWPRKKKASALCTNLLKCDKIPEYAEEDGGDFELEGVSKLLEKSPVIEQQSKVDGGTFGLRSRKRVFSLVSPTKETENPVKRVCTFNRHEDSSTATHRHQTKEEMEIFSSDQSRSSYLSSSQQSICDDVFNMSDFTPPSKVPKNPLSACGLLTLTQSPLLYKGKTPSSKRKEKIQDVFSDGDSDHGTPTLKRPTNPAAVSDDSPFRKVNPLRSISKTYSRKKLIT
notes: Treslin (Ticrr) of Xenopus laevis, endogenous in egg extract; 220 kDa as printed; no sites are mapped
B1 was tested, and the “stoichiometry N” value was 2 molecules of Treslin with 2 molecules of MTBP.
